This experiment deals with T1, recombinant human CD14 (B294801, histidine tagged) (Homo sapiens, UniProt P08571).
T1 construct: His; purchased Shanghai BaiYing Biotechnology Co., Ltd B294801 (Batch number 20200518A22)
T1 sequence (P08571 20-345): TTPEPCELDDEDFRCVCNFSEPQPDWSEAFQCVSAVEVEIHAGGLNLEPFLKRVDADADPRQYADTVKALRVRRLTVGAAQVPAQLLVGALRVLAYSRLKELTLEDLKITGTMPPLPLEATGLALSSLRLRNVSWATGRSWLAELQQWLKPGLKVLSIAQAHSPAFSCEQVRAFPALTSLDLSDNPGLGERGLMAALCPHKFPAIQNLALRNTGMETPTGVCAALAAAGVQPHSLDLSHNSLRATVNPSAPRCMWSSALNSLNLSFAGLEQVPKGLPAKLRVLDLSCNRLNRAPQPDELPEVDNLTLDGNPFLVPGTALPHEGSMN
The experiment is described as follows: Biacore 8K kinetic and affinity test of humanized antibodies (Example 8). Format: binding. The note with it: for Kd / koff (1:1 binding) / kon (1:1 binding): Biacore 8K, analyte B294801 0.78125-25 nM, capture 1 μg/mL; for Kd: KD=koff/kon; for affinity compared with the mouse antibody D6DD3D001: Biacore, B294801 antigen; for Change Factor (ratio of KD of the humanized to mouse antibody): relative to mouse antibody D6DD3D001. How it is done: Experimental reagents and consumables included Protein A chip (Cytiva, 29127556). Main instruments and equipment included Biacore 8K (Cytiva), shaker (Taicang Huamei), ELISA system (Molecular Devices), centrifuge (Baiyang), ultrapure water system (Millipore), and thermostatic incubator (BLUE PARD).
The antigen used for the binding affinity measurements is B294801. This antigen is a recombinant human CD14 antigen that is histidine tagged and has a molecular weight of 36 kDa. B294801 was purchased from Shanghai BaiYing Biotechnology Co., Ltd (name: Recombinant Human CD14/His Protein; Batch number 20200518A22). D6DD3D001 is a mouse antibody, and D6DD3D002-D6DD3D0016 are humanized antibodies. The antibodies are recombinant, human (hFc Tag). Selected parameters of the experimental samples are shown in Table 8-1, with MW referring to molecular weight in kiloDaltons (kDa).
The Biacore 8K platform was used to test the kinetic and affinity properties of the antibody. The operation was carried out according to the system instructions and indications.
The equilibrium dissociation constant (KD) reflects the affinity of the antibody to the target, with a smaller value indicating a stronger affinity. KD (in units of molarity) is determined by the ratio of the dissociation rate constant (koff) and the association rate constant (kon), that is, KD=Koff/kon.
15 humanized antibodies (numbered D6DD3D002-D6DD3D0016) and 1 mouse antibody (number D6DD3D001) were tested. For the experiments, the analyte solution comprises the B294801 antigen with an analyte concentration of 0.78125 nM, 1.5625 nM, 3.125 nM, 6.25 nM, 12.5 nM, and 25 nM. The capture concentration was 1 μg/mL. In Table 8-3, the change factor is the ratio of the equilibrium dissociation constant KD of the humanized to mouse antibody, and reflects the change in affinity after humanization.
On the technique in general: In SPR one partner is held on a chip, and binding of the other changes the refractive index at the surface.

Residue numbers refer to the chain shown, from its start.

B1: D6DD3D005: humanized anti-CD14 antibody; VH SEQ ID NO: 17, VL SEQ ID NO: 19 (antibody, V domains shown)
VH: QVQLQESGPGLVKPSETLSLTCTVSGYSITSDSAWNWIRQPPGKGLEWIGYISYSGSTSYNPSLKSRVTISRDTSKNQFSLKLSSVTAADTAVYYCVRGLRFAYWGQGTLVTVSS
VL: EIVLTQSPATLSLSPGERATLSCRASESVDSYVNSFLHWYQQKPGQAPRLLIYRASNLQSGIPARFSGSGSRTDFTLTISSLEPEDVAVYYCQQSNEDPYTFGQGTKLEIK
With B1, the Kd stood at 0.529 nM, the “koff (1:1 binding)” value was 0.000798 s⁻¹, the “kon (1:1 binding)” value was 1.51e+06 M⁻¹ s⁻¹ and the “affinity compared with the mouse antibody D6DD3D001” value is listed as “approximately equivalent to the affinity of the antibody D6DD3D001 before humanization”. The “Change Factor (ratio of KD of the humanized to mouse antibody)” value is 1.09.

B2: D6DD3D008: humanized anti-CD14 antibody; VH SEQ ID NO: 29, VL SEQ ID NO: 31 (antibody, V domains shown)
VH: B1 VH with Y27G, T30S
VL: DIVLTQSPDSLAVSLGERATINCRASESVDSYVNSFLHWYQQKPGQPPKLLIYRASNLQSGVPDRFSGSGSRTDFTLTISSLQAEDVAVYYCQQSNEDPYTFGQGTKLEIK
B2: the Kd stood at 1.57 nM, the “koff (1:1 binding)” value was found to be 0.00329 s⁻¹, the “kon (1:1 binding)” value was 2.09e+06 M⁻¹ s⁻¹ and the “Change Factor (ratio of KD of the humanized to mouse antibody)” value came to 3.24.

B3: D6DD3D006: humanized anti-CD14 antibody; VH SEQ ID NO: 21, VL SEQ ID NO: 23 (antibody, V domains shown)
VH: B1 VH with E16Q
VL: B1 VL
For B3, the Kd turned out to be 0.602 nM, the “koff (1:1 binding)” value was found to be 0.000862 s⁻¹, the “kon (1:1 binding)” value was 1.43e+06 M⁻¹ s⁻¹ and the “Change Factor (ratio of KD of the humanized to mouse antibody)” value is reported as 1.24.

B4: D6DD3D010: humanized anti-CD14 antibody; VH SEQ ID NO: 37, VL SEQ ID NO: 39 (antibody, V domains shown)
VH: B1 VH
VL: B2 VL
On to B4, for which the Kd is 0.555 nM, the “koff (1:1 binding)” value amounted to 0.00105 s⁻¹, the “kon (1:1 binding)” value was 1.9e+06 M⁻¹ s⁻¹ and the “affinity compared with the mouse antibody D6DD3D001” value is recorded as “approximately equivalent to the affinity of the antibody D6DD3D001 before humanization”. Besides, the “Change Factor (ratio of KD of the humanized to mouse antibody)” value is 1.14.

B5: D6DD3D007: humanized anti-CD14 antibody; VH SEQ ID NO: 25, VL SEQ ID NO: 27 (antibody, V domains shown)
VH: B1 VH with E16Q, Y27G, T30S, P41H
VL: B2 VL
B5: the “koff (1:1 binding)” value was 0.00342 s⁻¹ and the “kon (1:1 binding)” value turned out to be 2.11e+06 M⁻¹ s⁻¹.

B6: D6DD3D015: humanized anti-CD14 antibody; VH SEQ ID NO: 57, VL SEQ ID NO: 59 (antibody, V domains shown)
VH: B1 VH
VL: DIQLTQSPSSLSASVGDRVTITCRASESVDSYVNSFLHWYQQKPGKAPKLLIYRASNLQSGVPSRFSGSGSRTDFTLTISSLQPEDVATYYCQQSNEDPYTFGQGTKLEIK
As for B6, the Kd is 0.532 nM, the “koff (1:1 binding)” value is 0.000843 s⁻¹, the “kon (1:1 binding)” value is 1.59e+06 M⁻¹ s⁻¹ and the “affinity compared with the mouse antibody D6DD3D001” value is “approximately equivalent to the affinity of the antibody D6DD3D001 before humanization”. Moreover, the “Change Factor (ratio of KD of the humanized to mouse antibody)” value is recorded as 1.10.

A word on the Kd: it is the free concentration of one partner at which half of the binding sites on the other are occupied at equilibrium, for simple one-to-one binding.

The record behind these values is patent US20250011456A1, “ANTIBODIES AGAINST CD14 AND USES THEREOF” (Villanelle Life Science Inc, priority 2023, published 2025).
